Where only a bound is given, the exact number is not on record here.

For experiment [1], the target named is rhC5a_(R37A) (human). Put plainly: SPR; as a1 (NTA chip, immobilised His-tagged C5a form, D783A_(S512A) flowed, 25 °C, Hepes buffer), but KD from fitting of the response units at equilibrium because of very fast dissociation; triplicate. (SPR reads the build-up and loss of mass on a sensor chip optically.)
For experiment [2], the target named is R46A_(core) (human). Described as above.
Experiment [3] concerns the target rhC5a_(R40A) (human). Described as above.
Experiment [4] has as its target rhC5a_(R46A) (human). The description is as above.
For experiment [5], the target named is R40A_(core) (human). The experiment is described as above.
Experiment [6] deals with R37A_(core) (human). The description is as above.
Experiment [7] concerns the target rhC5a_(core) (human). Put plainly: SPR; BIAcore X100, NTA sensor chip with about 20-25 RU of immobilised His-tagged C5a form (ligand), ScpA form flowed as ligate at 30 uL/min, 25 °C, 10 mM Hepes-KOH pH 7.4, 150 mM NaCl, 0.005% Tween 20, 50 uM EDTA; global fit, 1:1 Langmuir model with drifting baseline; triplicate.

B1: ScpA_(S512A,D783A) (enzyme)
chain: ANTVTEDTPVTEQAVETPQPTAVSEEVPSSKETKTPQTPDDAEETIADDANDLAPQAPAKTADTPATSKATIRDLNDPSQVKTLQEKAGKGAGTVVAVIDAGFDKNHEAWRLTDKTKARYQSKEDLEKAKKEHGITYGEWVNDKVAYYHDYSKDGKTAVDQEHGTHVSGILSGNAPSETKEPYRLEGAMPEAQLLLMRVEIVNGLADYARNYAQAIRDAVNLGAKVINMSFGNAALAYANLPDETKKAFDYAKSKGVSIVTSAGNDSSFGGKTRLPLADHPDYGVVGTPAAADSTLTVASYSPDKQLTETAMVKTDDQQDKEMPVLSTNRFEPNKAYDYAYANRGMKEDDFKDVKGKIALIERGDIDFKDKVANAKKAGAVGVLIYDNQDKGFPIELPNVDQMPAAFISRKDGLLLKDNPQKTITFNATPKVLPTASGTKLSRFSSWGLTADGNIKPDIAAPGQDILSSVANNKYAKLSGTAMSAPLVAGIMGLLQKQYETQYPDMTPSERLDLAKKVLMSSATALYDEDEKAYFSPRQQGAGAVDAKKASAATMYVTDKDNTSSKVHLNNVSDKFEVTVTVHNKSDKPQELYYQATVQTDKVDGKHFALAPKVLYEASWQKITIPANSSKQVTVPIDASRFSKDLLAQMKNGYFLEGFVRFKQDPTKEELMSIPYIGFRGDFGNLSAVEKPIYDSKDGSSYYHEANSDAKDQLDGDGLQFYALKNNFTALTTESNPWTIIKAVKEGVENIEAIESSEITETIFAGTFAKQDDDSHYYIHRHANGEPYAAISPNGDGNRDYVQFQGTFLRNAKNLVAEVLDKEGNVVWTSEVTEQVVKNYNNDLASTLGSTRFEKTRWDGKDKDGKVVANGTYTYRVRYTPISSGAKEQHTDFDVIVDNTTPEVATSATFSTEDRRLTLASKPKTSQPVYRERIAYTYMDEDLPTTEYISPNEDGTFTLPEEAETMEGATVPLKMSDFTYVVEDMAGNITYTPVTKLLEGHS
In the case of B1, the Kd in experiment [1] was 2000 nM; in experiment [2], 4330 nM; in experiment [3] it was 1500 nM; in experiment [4], 669 nM; in experiment [5], over 15000 nM; in experiment [6], over 10000 nM. For the same molecule, the Kd in experiment [7] is 1970 nM. Further, the off-rate constant (koff) in experiment [7] came out at 0.0216 s⁻¹. The molecule also showed a kon in experiment [7] of 11000 M⁻¹ s⁻¹.

Broadly, the Kd is the constant that tells how readily two partners part at equilibrium. A higher Kd goes with weaker binding. Usually koff stands for a measure of how fast the partners let go of each other. A higher koff goes with fast dissociation. One may read the kon as the rate constant with which the complex forms.

For the origin of these results see publication PMC9464890, “Exosite binding modulates the specificity of the immunomodulatory enzyme ScpA, a C5a inactivating bacterial protease” (Computational and Structural Biotechnology Journal, 2022).
